B1: hu2131_v8 (antibody, human IgG1, V domains shown)
VH: QVQLVQSGAEVKKPGASVKLSCKASGHTFTSYWMHWVKQAPGQGLEWIGNIYPGSGSINYDEKFQGRATLTVDTSTRTAYMELSSLRSEDTAVYYCLTMTGTSWGRGTLVTVSS
VL: DVQMTQSPSSLSVSVGDRVTITCQASQGTPINLHWFQQKPGKAPKLLISGASNLEDGVPSRFSGSRYGTDFTFTISSLQPEDIATYFCLQFTYIPWTFGQGTKLEIK
notes: Expressed as human IgG1 with P238D Fc mutation
B2: hu2131_v7 (antibody, human IgG1, V domains shown)
VH: QVQLVQSGAEVKKPGASVKLSCKASGHTFTSYWMHWVKQAPGQGLEWIGNIYPGSGSINYDEKFQGRATLTVDTSTRTAYMELSSLRSEDTAVYYCLTMTGTSWGRGTLVTVSS
VL: DVQMTQSPSSLSVSVGDRVTMTCQASQGTPINLHWFQQKPGKAPKLLISGASNLEDGVPSRFSGSRYGTAFTLTISSLQPEDIATYFCLQFTYIPWTFGQGTKLEIK
notes: as for B1
B3: hu2131_v4 (antibody, human IgG1, V domains shown)
VH: QVQLVQSGSELKKPGASVKLSCKASGHTFTSYWMHWVKQAPGQGLEWIGNIYPGSGSINYDEKFQGRATLTVDTSTRTAYMELSSLRSEDSAVYYCLTMTGTSWGRGTLVTVSS
VL: DIQMTQSPSSLSVSVGDRVTITCQASQGTPINLHWFQQKPGKAPKLLISGASNLEDGVPSRFSGSGSGTDFTFTISSLQPEDIATYYCLQFTYIPWTFGQGTKLEIK
notes: as for B1
B4: hu2131_v3 (antibody, human IgG1, V domains shown)
VH: QVQLVQSGSELKKPGASVKLSCKASGHTFTSYWMHWVKQAPGQGLEWIGNIYPGSGSINYDEKFQGRATLTVDTSTRTAYMELSSLRSEDSAVYYCLTMTGTSWGRGTLVTVSS
VL: DVQMTQSPSSLSVSVGDRVTITCQASQGTPINLHWFQQKPGKAPKLLISGASNLEDGVPSRFSGSRYGTDFTFTISSLQPEDIATYFCLQFTYIPWTFGQGTKLEIK
notes: as for B1
B5: hu2131_v1 (antibody, human IgG1, V domains shown)
VH: QVQLVQSGSELKKPGASVKLSCKASGHTFTSYWMHWVKQAPGQGLEWIGNIYPGSGSINYDEKFQGRATLTVDTSTRTAYMELSSLRSEDSAVYYCLTMTGTSWGRGTLVTVSS
VL: DVQMTQSPSSLSVSVGDRVTMTCQASQGTPINLHWFQQKPGKAPKLLISGASNLEDGVPSRFSGSRYGTAFTLTISSLQDEDIATYFCLQFTYIPWTFGQGTKLEIK
notes: as for B1
B6: hu2131_v5 (antibody, human IgG1, V domains shown)
VH: QVQLVQSGSELKKPGASVKLSCKASGHTFTSYWMHWVKQAPGQGLEWIGNIYPGSGSINYDEKFQGRATLTVDTSTRTAYMELSSLRSEDSAVYYCLTMTGTSWGRGTLVTVSS
VL: DIQMTQSPSSLSVSVGDRVTITCQASQGTPINLHWFQQKPGKAPKLLISGASNLEDGVPSRFSGSGSGTEFTFTISSLQPEDAATYYCLQFTYIPWTFGQGTKLEIK
notes: as for B1
B7: hu2131_v2 (antibody, human IgG1, V domains shown)
VH: QVQLVQSGSELKKPGASVKLSCKASGHTFTSYWMHWVKQAPGQGLEWIGNIYPGSGSINYDEKFQGRATLTVDTSTRTAYMELSSLRSEDSAVYYCLTMTGTSWGRGTLVTVSS
VL: DVQMTQSPSSLSVSVGDRVTMTCQASQGTPINLHWFQQKPGKAPKLLISGASNLEDGVPSRFSGSRYGTAFTLTISSLQPEDIATYFCLQFTYIPWTFGQGTKLEIK
notes: as for B1
B8: hu2131_v6 (antibody, human IgG1, V domains shown)
VH: QVQLVQSGAEVKKPGASVKLSCKASGHTFTSYWMHWVKQAPGQGLEWIGNIYPGSGSINYDEKFQGRATLTVDTSTRTAYMELSSLRSEDTAVYYCLTMTGTSWGRGTLVTVSS
VL: DVQMTQSPSSLSVSVGDRVTMTCQASQGTPINLHWFQQKPGKAPKLLISGASNLEDGVPSRFSGSRYGTAFTLTISSLQDEDIATYFCLQFTYIPWTFGQGTKLEIK
notes: as for B1

The target in the test is T1, monomeric soluble human CD200R extracellular domain (human, UniProt Q8TD46 29-265).
T1 construct: extracellular domain; also called hCD200R; monomeric CD200R protein
T1 sequence (looked up): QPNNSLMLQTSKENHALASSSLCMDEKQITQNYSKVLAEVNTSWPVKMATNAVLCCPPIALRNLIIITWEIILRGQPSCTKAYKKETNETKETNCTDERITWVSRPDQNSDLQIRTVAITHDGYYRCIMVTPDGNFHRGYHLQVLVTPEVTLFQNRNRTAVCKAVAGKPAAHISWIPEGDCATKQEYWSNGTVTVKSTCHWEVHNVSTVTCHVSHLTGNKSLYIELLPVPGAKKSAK
Kind of test: BLI (Octet), antibody on anti-human Fc probes, monomeric CD200R in solution, 25 C, 1:1 global fit. The method, then:
Humanised variant antibodies combining the different heavy and light variable domains described in Example 6 were produced by transient transfection of HEK293 cells. All antibodies were expressed on a human IgGI isotype with a P238D Fc mutation. The unpurified supernatants were analysed by Protein A-HPLC to determine the antibody concentrations, as a measure of expression yield. […] Binding affinity of humanized variants to human CD200R was assessed by bio-layer interferometry on an Octet R4 instrument. Each antibody was captured directly onto anti-human Fc capture probes (Sartorius 18-5060) for 60 sec followed by baseline setting in assay buffer (DPBS, 0.01% Polysorbate-20). Association of monomeric CD200R protein to immobilised antibodies was measured in 4 different protein concentrations (300, 100, 30 and 10 nM in assay buffer) at 25° C., with an association time of 120s and dissociation of 120s in assay buffer only. A reference probe with no antibody immobilised was used for background subtraction. Kinetic rate constants and binding KDs were calculated using Octet Analysis Studio 12 software. Global curve fitting based on all 4 concentrations using a 1:1 model was performed, from which kon and koff were obtained to calculate KD using the relationship KD=koff/kon.
Broadly, the Kd is the concentration at which binding is half-saturated. Turning to B1, binding was characterised by a dissociation constant (Kd) of 3.18 pM. In the case of B2, the Kd worked out at 3.06 pM. In turn, B3 displayed a Kd of 2.74 pM. In turn, B4 displayed a Kd of 3.88 pM. Next, B5: 3.63 pM; B6: 5 pM; B7: 3.84 pM.

Consider B8, for which the Kd worked out at 3.96 pM.

Values taken from US20230416361A1 (MIROBIO, published 2023).
